In publication PMC7384961 (Cell, 2020):

Target: T1, FLAG-BirA(R118G)-TBL1XR1 Y446S (human, UniProt Q9BZK7 1-514, Y446S)
T1 sequence (looked up): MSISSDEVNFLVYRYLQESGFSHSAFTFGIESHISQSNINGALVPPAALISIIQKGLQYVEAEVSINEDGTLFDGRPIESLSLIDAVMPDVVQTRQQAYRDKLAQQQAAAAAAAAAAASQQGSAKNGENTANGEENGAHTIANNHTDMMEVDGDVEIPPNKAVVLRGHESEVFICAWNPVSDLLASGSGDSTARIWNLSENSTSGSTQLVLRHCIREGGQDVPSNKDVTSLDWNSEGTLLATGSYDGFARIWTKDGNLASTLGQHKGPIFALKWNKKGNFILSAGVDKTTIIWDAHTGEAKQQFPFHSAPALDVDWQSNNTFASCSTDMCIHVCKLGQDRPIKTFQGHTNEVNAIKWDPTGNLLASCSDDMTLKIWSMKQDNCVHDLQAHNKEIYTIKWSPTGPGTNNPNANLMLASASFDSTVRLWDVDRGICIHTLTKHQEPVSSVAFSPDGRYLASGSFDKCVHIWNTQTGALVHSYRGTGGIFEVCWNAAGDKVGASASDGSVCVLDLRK
Assay: proximity labelling

fold gain of interaction against TBL1XR1 WT: ~6 fold
B1: BACH2 (endogenous) (natural protein)
chain: not shown
